# Assay results published in patent US20230287376, “IMMOBILIZED ENZYME COMPOSITIONS AND METHODS” (New England Biolabs, Inc., published 2023).
# T1: T4 DNA ligase (Enterobacteria phage T4, UniProt P00970 P00970:1-487)
# T1 sequence: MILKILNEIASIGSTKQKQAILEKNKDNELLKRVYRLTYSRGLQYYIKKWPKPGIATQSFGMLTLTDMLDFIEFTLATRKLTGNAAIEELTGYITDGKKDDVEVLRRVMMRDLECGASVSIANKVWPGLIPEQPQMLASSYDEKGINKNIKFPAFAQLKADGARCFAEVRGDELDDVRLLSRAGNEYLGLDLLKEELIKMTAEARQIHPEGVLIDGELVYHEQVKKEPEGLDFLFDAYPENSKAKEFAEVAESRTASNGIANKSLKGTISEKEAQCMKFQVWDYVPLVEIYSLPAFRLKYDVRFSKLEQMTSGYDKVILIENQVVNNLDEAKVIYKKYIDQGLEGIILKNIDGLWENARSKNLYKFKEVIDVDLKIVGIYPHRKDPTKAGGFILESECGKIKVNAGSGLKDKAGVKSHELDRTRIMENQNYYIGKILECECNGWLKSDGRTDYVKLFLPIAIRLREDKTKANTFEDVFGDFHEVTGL
# T2: HS-T4 DNA ligase (Enterobacteria phage T4, UniProt P00970 P00970:1-487)
# T2 chain: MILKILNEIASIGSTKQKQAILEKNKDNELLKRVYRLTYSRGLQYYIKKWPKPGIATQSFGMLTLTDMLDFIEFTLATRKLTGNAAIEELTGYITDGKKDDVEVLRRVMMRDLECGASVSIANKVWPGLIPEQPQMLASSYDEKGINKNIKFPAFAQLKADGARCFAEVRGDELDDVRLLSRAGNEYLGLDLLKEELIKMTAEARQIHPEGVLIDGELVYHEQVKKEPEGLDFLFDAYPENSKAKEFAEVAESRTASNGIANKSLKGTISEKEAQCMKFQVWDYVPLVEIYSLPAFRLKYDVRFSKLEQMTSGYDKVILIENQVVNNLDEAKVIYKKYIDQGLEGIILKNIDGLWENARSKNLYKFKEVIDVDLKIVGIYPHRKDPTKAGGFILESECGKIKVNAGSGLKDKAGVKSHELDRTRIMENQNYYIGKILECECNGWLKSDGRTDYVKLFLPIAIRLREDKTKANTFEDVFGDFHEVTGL
# Columns and labels:
# [1] = target: T1, T4 DNA ligase; assay: ligation gel assay to SEQ 3 adaptor, 4 C; no activity after 60-100 C pretreatment; settings: tags: untagged, NEB M0202
# Description: (§1) A FAM-labeled DNA duplex was formed by annealing synthetic oligomer, Gene32FAM-fw3′A, /56-FAMN/CA TGGTGATTACGATTCTTGCCCAGTATGTCAATACATCAGTAAAAATA (SEQ ID NO:1) and Gene32-rv5′p, /5Phos/AT TTTTACTGATGTATTGACATACTGGGCAAGAATCGTAATCAC CATG (SEQ ID NO:2).
# (§2) For heat treatment, an aliquot of 15.83 μL from an enzyme master mixture was incubated at 4, 40, 60, 80, 90, 95 or 100° C. for 10 min, followed by addition of 9.17 μL of the DNA substrate mixture. All the ligation reactions were carried out at 4° C. overnight in a shaker. The samples were analyzed by electrophoresis on a 12% Tris-Glycine PAGE (Novex/Invitrogen) in 1×TAE Buffer for 2.5 hours at 25 mA (current). […] In contrast, HS-T4 DNA Ligase immobilized to BG-Agarose beads retained enzymatic activity after treatment in the same range of elevated temperature tested.
# [2] = target: T2, HS-T4 DNA ligase; assay: ligation gel assay to SEQ 3 adaptor; agarose-immobilized form retains activity after 60-100 C, soluble form does not; settings: tags: SNAP-tag fusion, soluble or immobilized on BG-agarose
# Description: as §1, §2
binder,measurement,setting,value
"Gene32 FAM duplex + TA adaptor (dsDNA, 5'-phosphate on SEQ 2) DNA 1: CATGGTGATTACGATTCTTGCCCAGTATGTCAATACATCAGTAAAAATA DNA 2: ATTTTTACTGATGTATTGACATACTGGGCAAGAATCGTAATCACCATG",binding result,[1],binds
same,binding result,[2],binds
